Experimental data published in patent US20250092426, “CAS ENDONUCLEASES AND RELATED METHODS” (Flagship Pioneering Innovations VII, LLC, published 2025).

Molecular target: T1, CasEnd-26 (synthetic construct)
T1 chain: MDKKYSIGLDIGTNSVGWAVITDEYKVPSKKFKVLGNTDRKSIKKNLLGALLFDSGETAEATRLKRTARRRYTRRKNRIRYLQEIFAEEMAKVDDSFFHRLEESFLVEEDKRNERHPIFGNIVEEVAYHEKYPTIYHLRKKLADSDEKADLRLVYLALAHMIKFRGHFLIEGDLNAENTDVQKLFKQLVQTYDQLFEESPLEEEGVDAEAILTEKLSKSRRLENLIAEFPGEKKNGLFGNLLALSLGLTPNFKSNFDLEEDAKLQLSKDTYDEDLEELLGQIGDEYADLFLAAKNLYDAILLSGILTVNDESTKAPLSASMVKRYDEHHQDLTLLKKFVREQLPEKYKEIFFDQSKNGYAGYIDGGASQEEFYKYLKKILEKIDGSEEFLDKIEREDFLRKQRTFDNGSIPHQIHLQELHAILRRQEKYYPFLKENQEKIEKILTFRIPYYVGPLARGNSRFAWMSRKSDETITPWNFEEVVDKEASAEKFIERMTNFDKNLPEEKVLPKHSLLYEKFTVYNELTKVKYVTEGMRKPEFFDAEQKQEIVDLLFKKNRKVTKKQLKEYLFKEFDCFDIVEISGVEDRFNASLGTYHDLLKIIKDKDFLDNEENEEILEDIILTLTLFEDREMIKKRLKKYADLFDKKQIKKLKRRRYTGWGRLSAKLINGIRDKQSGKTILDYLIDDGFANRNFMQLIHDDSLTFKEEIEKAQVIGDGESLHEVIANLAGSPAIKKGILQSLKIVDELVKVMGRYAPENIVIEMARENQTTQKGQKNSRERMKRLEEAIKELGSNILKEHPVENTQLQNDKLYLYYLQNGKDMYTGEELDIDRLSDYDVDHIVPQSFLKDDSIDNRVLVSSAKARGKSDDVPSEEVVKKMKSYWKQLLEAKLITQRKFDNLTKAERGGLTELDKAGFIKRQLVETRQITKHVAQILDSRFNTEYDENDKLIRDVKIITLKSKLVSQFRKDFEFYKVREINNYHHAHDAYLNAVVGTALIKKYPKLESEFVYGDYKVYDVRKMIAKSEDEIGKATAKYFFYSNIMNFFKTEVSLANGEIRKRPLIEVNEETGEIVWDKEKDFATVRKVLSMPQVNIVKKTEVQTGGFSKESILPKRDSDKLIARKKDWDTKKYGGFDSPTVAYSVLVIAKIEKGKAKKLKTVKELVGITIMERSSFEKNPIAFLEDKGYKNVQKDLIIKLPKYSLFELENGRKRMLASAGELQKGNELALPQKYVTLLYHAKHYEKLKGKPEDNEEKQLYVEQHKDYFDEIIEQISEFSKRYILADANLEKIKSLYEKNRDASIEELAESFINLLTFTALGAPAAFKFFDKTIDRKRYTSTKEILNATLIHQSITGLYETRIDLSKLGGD
Experiment: cell_activity; +++; HEK293T; PAM not stated
Procedure, shortened: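 BFP-to-GFP conversion via reverse transcriptase fusion with each Cas endonuclease plus template RNA: 200 ng of each plasmid nucleofected into 250,000 BFP-expressing HEK293T cells (program DS-150). Percent GFP+ cells by flow cytometry at day 4 measured editing.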

B1: BFP-to-GFP template RNA ; BFP reporter protospacer (ssRNA ; dsDNA)
RNA: GCCGAAGCACUGCACGCCGUGUUUUAGAGCUAGAAAUAGCAAGUUAAAAUAAGGCUAGUCCGUUAUCAACUUGAAAAAGUGGCACCGAGUCGGUGCACCCUGACGUACGGCGUGCAGUGCUU
DNA 1: GCCGAAGCACTGCACGCCGT
DNA 2: ACGGCGTGCAGTGCTTCGGC
- activity: ≥ 100 % of reference
